{"source": "paper PMC6997106", "about": "“The Trp triad within the V-domain of the receptor for advanced glycation end products modulates folding, stability and ligand binding” (Bioscience Reports, 2020)", "binders": {"B1": {"name": "RAGE-derived peptide W72 (RAGE residues 65-79) (peptide)", "peptide": "Ac-SPQGGGPWDSVARVL-NH2", "notes": "RAGE, human, residues 65-79; also called W72 peptide; source: synthetic peptide"}, "B2": {"name": "Recombinant human S100B (natural protein)", "chain": "MSELEKAMVALIDVFHQYSGREGDKHKLKKSELKELINNELSHFLEEIKEQEVVDKVMETLDNDGDGECDFQEFMAFVAMVTTACHEFFEHE", "notes": "S100B, human, uniprot P04271; Homodimer in the crystal structure 5D7F; also called calcium-loaded S100B"}, "B3": {"name": "RAGE V-domain (residues 23-132), wild type (domain or fragment, human, UniProt Q15109 23-132, looked up)", "chain": "AQNITARIGEPLVLKCKGAPKKPPQRLEWKLNTGRTEAWKVLSPQGGGPWDSVARVLPNGSLFLPAVGIQDEGIFRCQAMNRNGKETKSNYRVRVYQIPGKPEIVDSASE", "notes": "receptor for advanced glycation end products (RAGE), human, V-domain, residues 23-132 of uniprot Q15109; Cloned into pET15b by NcoI and XhoI; also called WT; wild-type V-domain; source: E. coli Shuffle T7 Express, purified (HisTrap HP, HiTrap SP FF cation exchange)"}, "B4": {"name": "RAGE V-domain (residues 23-132) W72A (domain or fragment, human, UniProt Q15109 23-132, looked up)", "chain": "B3 chain with W50A", "notes": "RAGE, human, V-domain, residues 23-132 of uniprot Q15109; Same construct as m1 with the mutation; source: E. coli Shuffle T7 Express, purified (HisTrap HP, HiTrap SP FF cation exchange)"}, "B5": {"name": "FITC-labeled recombinant human S100B (natural protein)", "chain": "B2 chain", "modifications": "fluorescein (FITC labeling kit, 5-fold excess of FITC over protein; sites not stated)", "notes": "S100B, human, uniprot P04271; the titrations were fitted with a 1:1 RAGE:S100B model; also called S100B-FITC; FITC-labeled S100B; source: labeled with an FITC labeling kit (Pierce/Thermo Fisher 53027)"}, "B6": {"name": "RAGE V-domain (residues 23-132) W61A (domain or fragment, human, UniProt Q15109 23-132, looked up)", "chain": "B3 chain with W39A", "notes": "as for B4"}}, "key": {"Recombinant human S100B [1]": {"target": "B2", "assay": "crystal structure; 2 mM S100B with 3 mM peptide W72, CaCl2 present; sitting drop, 0.1 M Na cacodylate pH 6.8, 22% PEG 3350, 5 mM CaCl2, 20°C", "conditions": "both partners purified"}, "[2]": {"target": "the molecule itself", "assay": "crystal structure; 2 mM S100B with 3 mM peptide W72, CaCl2 present; sitting drop, 0.1 M Na cacodylate pH 6.8, 22% PEG 3350, 5 mM CaCl2, 20°C"}, "[3]": {"target": "B3", "assay": "steady-state tryptophan fluorescence; emission spectra of V-domains alone and as V-domain:S100B complexes; excitation at 295 nm", "conditions": "both partners purified"}, "[4]": {"target": "B6", "assay": "steady-state tryptophan fluorescence; emission spectra of V-domains alone and as V-domain:S100B complexes; excitation at 295 nm", "conditions": "both partners purified"}, "[5]": {"target": "T1, RAGE V-domain (residues 23-132) W51A/W72A (human, UniProt Q15109 23-132, W51A | W72A)", "T1 construct": "RAGE, human, V-domain, residues 23-132 of uniprot Q15109; Same construct as m1 with the mutations; source: E. coli Shuffle T7 Express, purified (HisTrap HP, HiTrap SP FF cation exchange)", "assay": "steady-state tryptophan fluorescence; emission spectra of V-domains alone and as V-domain:S100B complexes; excitation at 295 nm", "conditions": "both partners purified"}, "[6]": {"target": "T2, RAGE V-domain (residues 23-132) W51A/W61A (human, UniProt Q15109 23-132, W51A | W61A)", "T2 construct": "RAGE, human, V-domain, residues 23-132 of uniprot Q15109; Same construct as m1 with the mutations; also called W51/W61; source: E. coli Shuffle T7 Express, purified (HisTrap HP, HiTrap SP FF cation exchange)", "assay": "steady-state tryptophan fluorescence; emission spectra of V-domains alone and as V-domain:S100B complexes; excitation at 295 nm", "conditions": "both partners purified"}, "[7]": {"target": "T3, RAGE V-domain (residues 23-132) W51A (human, UniProt Q15109 23-132, W51A)", "T3 construct": "RAGE, human, V-domain, residues 23-132 of uniprot Q15109; Same construct as m1 with the mutation; source: E. coli Shuffle T7 Express, purified (HisTrap HP, HiTrap SP FF cation exchange)", "assay": "steady-state tryptophan fluorescence; emission spectra of V-domains alone and as V-domain:S100B complexes; excitation at 295 nm", "conditions": "both partners purified"}, "[8]": {"target": "B4", "assay": "steady-state tryptophan fluorescence; emission spectra of V-domains alone and as V-domain:S100B complexes; excitation at 295 nm", "conditions": "both partners purified"}, "[9]": {"target": "T4, RAGE V-domain (residues 23-132) W61A/W72A (human, UniProt Q15109 23-132, W61A | W72A)", "T4 construct": "RAGE, human, V-domain, residues 23-132 of uniprot Q15109; Same construct as m1 with the mutations; source: E. coli Shuffle T7 Express, purified (HisTrap HP, HiTrap SP FF cation exchange)", "assay": "steady-state tryptophan fluorescence; emission spectra of V-domains alone and as V-domain:S100B complexes; excitation at 295 nm", "conditions": "both partners purified"}, "Recombinant human S100B [10]": {"target": "B2", "assay": "tryptophan fluorescence lifetime; 1 µM V-domain, with S100B in the presence of 2 mM calcium; excitation 280 nm; amplitude weighted average lifetime τm", "conditions": "both partners purified"}, "[11]": {"target": "B3", "assay": "fluorescence polarisation; 1 µM S100B-FITC in 50 mM Tris, pH 7.0, 2 mM CaCl2 titrated with V-domain stock solutions; 1:1 RAGE:S100B model; apparent", "conditions": "both partners purified"}, "[12]": {"target": "B6", "assay": "fluorescence polarisation; 1 µM S100B-FITC in 50 mM Tris, pH 7.0, 2 mM CaCl2 titrated with V-domain stock solutions; 1:1 RAGE:S100B model; apparent", "conditions": "both partners purified"}, "[13]": {"target": "T1, RAGE V-domain (residues 23-132) …", "assay": "fluorescence polarisation; 1 µM S100B-FITC in 50 mM Tris, pH 7.0, 2 mM CaCl2 titrated with V-domain stock solutions; 1:1 RAGE:S100B model; apparent", "conditions": "both partners purified"}, "[14]": {"target": "T2, RAGE V-domain (residues 23-132) …", "assay": "fluorescence polarisation; 1 µM S100B-FITC in 50 mM Tris, pH 7.0, 2 mM CaCl2 titrated with V-domain stock solutions; 1:1 RAGE:S100B model; apparent", "conditions": "both partners purified"}, "[15]": {"target": "T3, RAGE V-domain (residues 23-132) W51A", "assay": "fluorescence polarisation; 1 µM S100B-FITC in 50 mM Tris, pH 7.0, 2 mM CaCl2 titrated with V-domain stock solutions; 1:1 RAGE:S100B model; apparent", "conditions": "both partners purified"}, "[16]": {"target": "B4", "assay": "fluorescence polarisation; 1 µM S100B-FITC in 50 mM Tris, pH 7.0, 2 mM CaCl2 titrated with V-domain stock solutions; 1:1 RAGE:S100B model; apparent", "conditions": "both partners purified"}, "[17]": {"target": "T4, RAGE V-domain (residues 23-132) …", "assay": "fluorescence polarisation; 1 µM S100B-FITC in 50 mM Tris, pH 7.0, 2 mM CaCl2 titrated with V-domain stock solutions; 1:1 RAGE:S100B model; apparent", "conditions": "both partners purified"}}, "note": "Residue numbers refer to the chain shown, from its start. In names and notes the source's numbering stands."}
{"binder": "B1", "values": [{"measurement": "binding result", "setting": "Recombinant human S100B [1]", "result": "binds"}]}
{"binder": "B2", "values": [{"measurement": "binding result", "setting": "[2]", "result": "binds"}, {"measurement": "binding result", "setting": "[3]", "result": "binds"}, {"measurement": "binding result", "setting": "[4]", "result": "binds"}, {"measurement": "binding result", "setting": "[5]", "result": "binds"}, {"measurement": "binding result", "setting": "[6]", "result": "binds"}, {"measurement": "binding result", "setting": "[7]", "result": "binds"}, {"measurement": "binding result", "setting": "[8]", "result": "binds"}, {"measurement": "binding result", "setting": "[9]", "result": "binds"}]}
{"binder": "B3", "values": [{"measurement": "Δτm (change of the average Trp fluorescence lifetime with S100B)", "setting": "Recombinant human S100B [10]", "result": -0.83, "unit": "ns"}]}
{"binder": "B4", "values": [{"measurement": "Δτm (change of the average Trp fluorescence lifetime with S100B)", "setting": "Recombinant human S100B [10]", "result": -1, "unit": "ns"}]}
{"binder": "B5", "values": [{"measurement": "Kd", "setting": "[11]", "result": "2700 ± 300", "unit": "nM"}, {"measurement": "Kd", "setting": "[12]", "result": "870 ± 40", "unit": "nM"}, {"measurement": "Kd", "setting": "[13]", "result": "460 ± 320", "unit": "nM"}, {"measurement": "Kd", "setting": "[14]", "result": "660 ± 120", "unit": "nM"}, {"measurement": "Kd", "setting": "[15]", "result": "480 ± 60", "unit": "nM"}, {"measurement": "Kd", "setting": "[16]", "result": "1120 ± 1010", "unit": "nM"}, {"measurement": "Kd", "setting": "[17]", "result": "370 ± 90", "unit": "nM"}]}
{"binder": "B6", "values": [{"measurement": "Δτm (change of the average Trp fluorescence lifetime with S100B)", "setting": "Recombinant human S100B [10]", "result": -0.8, "unit": "ns"}]}
